Target: CSL (RBPJ) (Mus musculus) (UniProt P31266)
Test: ITC
Conditions: text: measurable, albeit weak, binding; ITC: 50 mM sodium phosphate pH 6.5, 150 mM NaCl, 10 C (10 uM CSL in cell, 100 uM DNA in syringe). EMSA: 150 mM KCl, 50 mM Tris pH 7.4, 1 mM DTT, 2% polyvinyl …

Chain of CSL (RBPJ) (Mus musculus) (P31266 53-474): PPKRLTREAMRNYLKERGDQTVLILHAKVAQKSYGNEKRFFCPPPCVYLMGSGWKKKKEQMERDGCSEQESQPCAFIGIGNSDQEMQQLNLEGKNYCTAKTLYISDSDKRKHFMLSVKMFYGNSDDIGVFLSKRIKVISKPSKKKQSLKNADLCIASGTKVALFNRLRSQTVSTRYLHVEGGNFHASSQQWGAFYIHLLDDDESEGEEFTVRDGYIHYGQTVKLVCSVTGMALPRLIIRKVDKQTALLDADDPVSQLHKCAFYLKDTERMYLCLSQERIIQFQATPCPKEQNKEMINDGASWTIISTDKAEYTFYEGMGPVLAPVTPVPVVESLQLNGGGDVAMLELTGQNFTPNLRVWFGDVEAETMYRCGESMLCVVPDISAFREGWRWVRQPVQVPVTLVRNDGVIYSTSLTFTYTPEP

ITC duplex CGTGAAAA gave a Kd of over 50 µM.
